Experimental data reported in paper PMC10683372.
pKd, pKi: −log10 of the molar value. “And” between values parts separate entries of the source, which are not always exact repeats. Identical values can stand only once. Bridge positions count the residues as written; N and C are the ends.

Key:
α‐thrombin (αT) = test: enzyme inhibition (amidolytic activity on S2238)
[1] = molecular target: recombinant wild type α‐thrombin; test: other fluorescence titration; intrinsic fluorescence of thrombin (50 nM) at 334 nm recorded at increasing peptide concentration; TBS pH 7.4, 0.15 M NaCl, 0.1% PEG-8000, 25°C; one-site model
[2] = molecular target: [F]‐Haem(45–57), N^α‐fluoresceinated analogue of the peptide 45–57 (Haemadipsa sylvestris); test: other fluorescence titration; thrombin (S195A by the methods) or its hirudin complex added to the fluoresceinated peptide (60 nM); excitation 492 nm, emission 516 nm; TBS, 25°C
[3] = molecular target: recombinant wild type α‐thrombin; test: enzyme inhibition (amidolytic activity on S2238)

Substance: H-IRFGMGKVPCPDGEVGYTCDCGEKICLYGQSCNDGQCSGDPKPSSEFEEFEIDEEEK-OH (disulfide 10-19, 21-32, 26-37)
- T m higher than hirudin: 22 °C

Substance: Haem(1–10) wild type (peptide)
- pKi (α‐thrombin (αT)): 5.72

Substance: Haem(45–57) (peptide)
- pKd [1]: 5.80

Substance: catalytically inactive αT S195A mutant (enzyme)
- pKd [2]: 6.46

Substance: full‐length haemadin Met5nLeu analogue (natural protein)
- fold increase of KI(fast) against wild-type haemadin (α‐thrombin (αT)): 2 fold
- fold increase of KI(slow) against wild-type haemadin (α‐thrombin (αT)): 2 fold

Substance: full‐length wild‐type haemadin 1–57 (natural protein)
- pKi [3]: 12.67
- koff [3]: 4.83e-05 s⁻¹
- kon [3]: 2.25e+08 M⁻¹ s⁻¹
- pKi (α‐thrombin (αT)): 12.64 and 11.82

Substance: preformed S195A‐hirudin complex
- pKd [2]: 4.89
